Measurements published in patent publication US20220204609A1.

Tests used:
[1] = target: Claudin18.1 on cells (human) (UniProt P56856); assay: flow cytometry on 293T-Claudin18.1 cells, antibody at 3 µg/mL
[2] = target: Claudin18.1 on cells (human) (UniProt P56856); assay: as above; remark: listed apart in the source
[3] = target: Claudin18.1 on cells (human) (UniProt P56856); assay: flow cytometry on 293T-Claudin18.1 cells, antibody at 1.5 µg/mL
[4] = target: Claudin18.1 on cells (human) (UniProt P56856); assay: as above; remark: listed apart in the source
[5] = target: Claudin18.1 on cells (human) (UniProt P56856); assay: flow cytometry on 293T-Claudin18.1 cells, antibody at 0.75 µg/mL
[6] = target: Claudin18.1 on cells (human) (UniProt P56856); assay: as above; remark: listed apart in the source
[7] = target: Claudin18.1 on cells (human) (UniProt P56856); assay: flow cytometry on 293T-Claudin18.1 cells, antibody at 0.375 µg/mL
[8] = target: Claudin18.1 on cells (human) (UniProt P56856); assay: as above; remark: listed apart in the source

Sequence of Claudin18.1 on cells (human) (P56856 whole entry, form in doubt): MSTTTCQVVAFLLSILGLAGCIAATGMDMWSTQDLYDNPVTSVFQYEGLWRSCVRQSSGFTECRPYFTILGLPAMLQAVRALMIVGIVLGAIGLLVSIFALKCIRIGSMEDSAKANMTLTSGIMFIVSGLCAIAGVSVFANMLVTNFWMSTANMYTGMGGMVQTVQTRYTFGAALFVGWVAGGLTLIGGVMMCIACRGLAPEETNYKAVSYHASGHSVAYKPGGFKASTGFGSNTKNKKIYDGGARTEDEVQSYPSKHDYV

Substance: IMAB362 (antibody)
- mean fluorescence intensity [1]: 35600
- mean fluorescence intensity [2]: 12500
- mean fluorescence intensity [3]: 24900
- mean fluorescence intensity [4]: 17300
- mean fluorescence intensity [5]: 32000
- mean fluorescence intensity [6]: 20700
- mean fluorescence intensity [7]: 15600
- mean fluorescence intensity [8]: 12800
